# Substitutions are numbered along the chain they refer to.
# Key:
# Experiment in all cases: EMSA
# [1] = target: T1, phi29 DNA polymerase E221K E221K (Bacillus phage phi29) (UniProt P03680); details: SD 18.4; unit not given (μM in assay); pH 7.9, 66 mM K-acetate, 30 C
# T1 sequence: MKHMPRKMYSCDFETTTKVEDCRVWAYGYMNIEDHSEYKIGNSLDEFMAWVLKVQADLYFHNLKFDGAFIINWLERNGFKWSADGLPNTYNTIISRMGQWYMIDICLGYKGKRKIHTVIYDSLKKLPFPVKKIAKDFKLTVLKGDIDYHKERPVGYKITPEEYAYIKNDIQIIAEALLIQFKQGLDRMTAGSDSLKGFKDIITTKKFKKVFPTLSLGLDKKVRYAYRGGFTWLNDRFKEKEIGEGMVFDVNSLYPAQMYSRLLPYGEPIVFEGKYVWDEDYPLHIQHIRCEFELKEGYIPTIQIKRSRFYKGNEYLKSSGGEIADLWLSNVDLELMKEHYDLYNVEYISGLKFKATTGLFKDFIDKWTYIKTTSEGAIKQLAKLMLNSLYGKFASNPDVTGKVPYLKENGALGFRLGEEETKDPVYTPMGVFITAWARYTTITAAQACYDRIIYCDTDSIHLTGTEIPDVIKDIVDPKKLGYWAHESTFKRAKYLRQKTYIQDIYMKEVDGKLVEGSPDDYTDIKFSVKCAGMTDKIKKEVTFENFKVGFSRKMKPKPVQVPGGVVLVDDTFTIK
# [2] = target: T2, phi29 DNA polymerase F526L F526L (Bacillus phage phi29) (UniProt P03680); details: SD 24.2; unit not given (μM in assay); pH 7.9, 66 mM K-acetate, 30 C
# T2 sequence: T1 sequence with K221E, F526L
# [3] = target: T3, phi29 DNA polymerase K512E K512E (Bacillus phage phi29) (UniProt P03680); details: SD 27.6; unit not given (μM in assay); pH 7.9, 66 mM K-acetate, 30 C
# T3 sequence: T1 sequence with K221E, K512E
# [4] = target: T4, phi29 DNA polymerase Q497P Q497P (Bacillus phage phi29) (UniProt P03680); details: SD 50.2; unit not given (μM in assay); pH 7.9, 66 mM K-acetate, 30 C
# T4 sequence: T1 sequence with K221E, Q497P
sequence,measurement,setting,value
GATCACAGTGAGTAC / TCTATTGTACTCACTGTGATC [15-mer/21-mer primer/template],Kd,[1],67 µM
same,Kd,[2],53 µM
same,Kd,[3],54 µM
same,Kd,[4],73 µM

# From patent US20140322759
